Laboratory results reported in US20160362487A1 (Regeneron, published 2016).

T1: human IL-33 (R&D Systems, #3625-IL-010/CF) (human, UniProt O95760 112-270)
T1 construct: Commercial recombinant protein; also called hIL-33; interleukin-33
T1 sequence (looked up): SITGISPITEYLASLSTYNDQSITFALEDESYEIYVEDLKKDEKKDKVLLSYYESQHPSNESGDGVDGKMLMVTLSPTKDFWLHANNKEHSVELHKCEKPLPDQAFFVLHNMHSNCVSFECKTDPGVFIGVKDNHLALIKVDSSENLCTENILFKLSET

T2: cynomolgus monkey IL-33 expressed with a C-terminal hexahistidine tag (cynomolgus monkey)
T2 construct: also called MfIL-33-6His; Mf-IL-33-6His
T2 chain: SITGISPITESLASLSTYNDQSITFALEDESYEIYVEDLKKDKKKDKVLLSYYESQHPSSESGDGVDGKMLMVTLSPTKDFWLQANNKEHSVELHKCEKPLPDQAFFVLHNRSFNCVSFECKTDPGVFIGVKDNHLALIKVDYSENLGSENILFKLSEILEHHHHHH


How the values were obtained:
[1] = molecular target: T1, human IL-33 (R&D Systems, …); test: SPR 25C, pH6.0 chase, mAb captured
Protocol: (§1) Equilibrium dissociation constants (KD values) for IL-33 binding to purified anti-IL-33 monoclonal antibodies were determined using a real-time surface plasmon resonance biosensor using a Biacore 4000 instrument. The Biacore sensor surface was first derivatized by amine coupling with either a polyclonal rabbit anti-mouse antibody (GE, # BR-1008-38) or with a monoclonal mouse anti-human Fc antibody (GE, # BR-1008-39) to capture anti-IL-33 monoclonal antibodies expressed with mouse or with human IgG4 constant regions, respectively. All Biacore binding studies were performed in 0.01M ADA pH 7.4, 0.15M NaCl, 3 mM EDTA, and 0.05% v/v Surfactant Tween-20 (ABS-ET running buffer). […] Association of either hIL-33 or MfIL-33-6His to the captured monoclonal antibody was monitored for 4 minutes and their dissociation in ABS-ET running buffer was monitored for 10 minutes. The effect of reduced pH on the binding of each anti-IL-33 antibody to either hIL-33 or MfIL-33-6His was studied using an in-line pH chase assay format in 0.01M ADA pH 6.0, 0.15M NaCl, 3 mM EDTA, and 0.05% v/v Surfactant Tween-20 (ABS-ET pH6 buffer). To achieve this, association of either hIL-33 or MfIL-33-6His to the captured monoclonal antibody was monitored for 4 minutes in ABS-ET running buffer. Following a 30 second dissociation of either hIL-33 or MfIL-33-6His in ABS-ET running buffer, ABS-ET pH6 buffer was injected for 3 minutes, and the analyte dissociation under the low-pH conditions was measured. All the binding kinetic experiments were performed at both 25° C. and 37° C. Kinetic association (kₐ) and dissociation (kd) constants were determined by fitting the real-time sensorgrams to a 1:1 binding model using Scrubber 2.0c curve fitting software. Binding dissociation equilibrium constants (KD) and dissociative half-lives (t½) were calculated from the kinetic rate constants as: […]

[2] = molecular target: T2, cynomolgus monkey IL-33 expressed with …; test: SPR 25C, pH6.0 chase, mAb captured
Protocol: as §1

[3] = molecular target: T2, cynomolgus monkey IL-33 expressed with …; test: BLI; mAb-1 on captured MfIL-33-6His
Protocol: Binding competition between a panel of different anti-IL-33 monoclonal antibodies was determined using a real time, label-free bio-layer interferometry assay on an Octet® HTX biosensor (ForteBio, A Division of Pall Life Sciences). The experiment was performed at 25° C. using a buffer of 0.01M HEPES pH7.4, 0.15M NaCl, 3 mM EDTA, 0.05% v/v Surfactant Tween-20, and 0.1 mg/ml BSA (HBS-ET kinetics buffer) with the plate shaking at a speed of 1000 rpm. […] The antigen-captured biosensors were then saturated with a first anti-IL-33 monoclonal antibody (subsequently referred to as mAb-1) by immersion into wells containing 50 μg/mL solution of mAb-1 for 5 minutes. The biosensors were then dipped into wells containing a 50 μg/mL solution of a second anti-IL-33 monoclonal antibody (subsequently referred to as mAb-2) for 4 minutes. The biosensors were washed in HBS-ET kinetics buffer in between every step of the experiment. The real-time binding response was monitored during the experiment, and the maximum binding response for each binding step was recorded. The response of mAb-2 binding to MfIL-33-6His pre-complexed with mAb-1 was measured, and competitive/non-competitive behavior of different anti-IL-33 monoclonal antibodies with respect to each other was determined.

[4] = molecular target: T3, pre-formed complex of hIL-33 and captured hST2-MMH (human, UniProt O95760 112-270); test: SPR 25C, 100 nM mAb over hIL-33/hST2-MMH complex
T3 construct: Ligand-receptor complex on the sensor: hST2-MMH captured by anti-myc mAb and saturated with 100 nM hIL-33; also called hIL-33 pre-complexed with hST2-MMH
Protocol: The ability of anti-IL-33 antibodies to bind to a pre-formed complex of IL-33 with ST2 was tested using Biacore T-200 instrument equipped with a real-time surface plasmon resonance biosensor. The experiment was performed at 25° C. with a running buffer composed of 0.01M HEPES pH 7.4, 0.15M NaCl, 3 mM EDTA, and 0.05% v/v Surfactant Tween-20 (HBS-ET). […] The captured hST2-MMH surface was then saturated by injecting 100 nM of human IL-33 (hIL-33; R&D Systems, #3625-IL-010/CF) for 3 minutes followed by a 3 minute injection of a 100 nM solution of the anti-IL-33 monoclonal antibody. The real-time binding response was monitored during the entire course of the experiment, and the observed binding response at 3 minutes after injection of anti-IL-33 antibody to the pre-formed complex of hIL-33 and captured hST2-MMH was recorded and tabulated and shown in Table 7. No non-specific binding of anti-IL-33 monoclonal antibody to the anti-myc tag capture surface was observed.

koff [1] [s⁻¹]	t½ [1] [min]	t½ Ratio (pH 7.4/pH 6.0) [1]	koff [2] [s⁻¹]	t½ [2] [min]	t½ Ratio (pH 7.4/pH 6.0) [2]	mAb-1 Binding (nm) [3] [nm]	Antibody Binding Response (RU) [4] [RU]	Binder
0.00011	105	11	0.000126	91	1.3	0.58	13	H1M9566N (antibody, mouse IgG1, V domains shown, Human variable domains, mouse IgG1 Fc (H1M)) VH: EVQLLESGGDLVQPGGSLRLSCAASGFTFSSYAMSWVRQAPGKGLEWVSVISGSGSSTDYADSVKGRFTISRDNSRDTLHLQMNSLRAEDTAVYYCAKTFYYFYGLDVWGQGTTVTVSS VL: DIQMTQSPSSLSASLRDRVTITCRASQGISNYLAWYQQKPGKVPKVLIYAASTLQSGVPSRFSGSGSGTVFTLTISSLQTEDVATYYCQKYSSAPFTFGPGTKVDIK
0.000178	65	1.4	0.000302	38	1.2	0.5	131	H1M9568N (antibody, mouse IgG1, V domains shown, Human variable domains, mouse IgG1 Fc (H1M)) VH: QVLLVQSGAEVKKPGATVKVSCKASGSTFTGYYMHWVRQAPGQGLEWMGWINPNNGGTNYAQKFQGRVTMTRDTSISTAYMELSRLRSDDTAVYYCARELRYNWKSWGQGTLVTVSS VL: EIVLTQSPGTLSLSPGERVTLSCRASQSVGRPYLAWYQQIPGQAPRLLIYGASSRATDIPDRFSGNGSGTDFTLTISRLEPEDFAVYYCQQYDNSPYTFGQGTRLEIK
0.00128	9	5.7	0.0358	0.3	2.7	0.72	-1	H4H9629P (antibody, human IgG4, V domains shown, Human IgG4 Fc (H4H)) VH: EVQLVESGGGLVQPGGSLRLSCAASGFTFRSFAMSWVRQAPGKGLELVSDLRTSGGSTYYADSVKGRLTISRDNSKNTLYLQMNSLRAEDTAVYYCAKSHYSTSWFGGFDYWGQGTLVTVSS VL: DIQMTQSPSSVSASVGDRVTITCRASQGFSSWLAWYQQKPGKAPKLLIYAASSLQSGVPSRFSGSGSGTDFTLTITNLQPEDFATYYCQQANSFPLTFGGGTKVEIK
0.000708	16	3.2	0.00108	11	0.7	0.58	-1	H4H9660P (antibody, human IgG4, V domains shown, Human IgG4 Fc (H4H)) VH: EVQLVESGGGLVQPGGSLRLSCAASGITLSSYGMSWVRQAPGKGLEWVASIFGSGGGPYYADSVKGRFTMSRDNSKNTLYLQMNSLRAEDTAVYYCAKDRYSGSYYGGFDYWGRGTLVTVSS VL: DIQMTQSPSSVSASVGDRVTITCRASQGITSWLAWYQQKPGKAPTLLIYAASSLQTGVPSRFSGSGSGTDFTLTISSLQPEHFATYYCQQANSFPPTFGGGTKVEIK
0.00081	14	2.9	0.00287	4	0.3	0.64	-1	H4H9633P (antibody, human IgG4, V domains shown, Human IgG4 Fc (H4H)) VH: EVQLVESGGGLVQPGGSLRLSCAASGFTFSSYVMSWVRQAPGKGLEWVSSISGNGGSTNYADSVKGRFTISRDNSKNTLFLEMNSLRAEDTAVYYCAKSLGTTTTFLGFDYWGQGTLVTVSS VL: DIQMTQSPSSVSASVGDRVTITCRASQGISSWLAWYQQKPGKAPKLLIYAASSLQSGVPSRFSGSGSGTYFTLTISSLQPEDFATYYCQQANSFPLTFGGGTKVEIK
0.000826	14	3.3	0.000117	99	0.3	0.56	0	H4H9662P (antibody, V domains shown, Human IgG4 Fc (H4H)) VH: EVQLVESGGGLVQPGGSLRLSCAASGFTFSSYALTWVRQAPGKGLEWVSFISGSGGRPFYADSVKGRFTISRDNSKNMLYLQMNSLRAEDTAIYYCAKSLYTTSWYGGFDSWGQGTLVTVSS VL: DIQMTQSPSSVSASVGDRVTITCRASQGVVSWLAWYQQKPGKAPKLLIYAASSLQSGVPSRFSGSGSGTDFTLTISSLQPEDFATYYCQQSNSFPFTLGPGTKVDIK
0.000664	17	3.9	0.000123	94	0.3	0.56	-1	H4H9659P (antibody, human IgG4, V domains shown, Human IgG4 Fc (H4H)) VH: QVQLVQSGAEVKKPGASVKVSCKASGYTFNSYGISWVRQAPGQGLEWMGWISSHNGNSHYVQKFQGRVSMTTDTSTSTAYMELRSLRSDDTAVYYCARHSYTTSWYGGFDYWGQGTLVTVSS VL: DIQMTQSPSSVSASVGDRVTITCRASQGFSSWLAWYQQKPGKAPQLLIYAASSLQSGVPSRFSGSGSGSDFTLTISSLQPEDFATYYCQQANSFPLTFGGGTKVEIK
0.000657	18	2.8	0.000501	23	0.4	0.61	-1	H4H9640P (antibody, human IgG4, V domains shown, Human IgG4 Fc (H4H)) VH: QVQLQESGPGLVKPSETLSLTCTVSGGSISSYYWSWIRQPPGKGLELIGYIYYSGSTNYNPSLKSRVTISVDTSKNHFSLKLSSVTAADTAVYYCARSQYTSSWYGSFDIWGQGTMVTVSS VL: DIQMTQSPSSVSASVGDRVTITCRASQGISTWLAWFQQKPGKAPKLLIYAASTLQGGVPSRFSGSGSGPEFTLTISSLQPEDFATYYCQQANSFPWTFGQGTKVEIK
			0.000143	81	2	0.46	11	H1M9565N (antibody, mouse IgG1, V domains shown, Human variable domains, mouse IgG1 Fc (H1M)) VH: QVTLKESGPVLVKPTESLTLTCSVSGFSLSNVRMGVSWIRQSPGKALEWLAHIFSNDEKSYTTSLKTRLTISKDTSRSQVVLTMTDMDPGDTATYYCARIRNLAFNYWGQGTLVTVSS VL: not shown
